# Laboratory results taken from the DeepSol protein solubility set.
# Experiment: soluble on expression in E. coli; label from the status in PepcDB or PDB records
row,Sequence,soluble on expression in E. coli
1,GANNDMPVEQILEAELAVDPKIDTYIDAQKDPVTNICQAADKQLFTLVEWAKRIPHFTELPLEDQVILLRAGWNELLIAGFSHRSIMAKDGILLATGLHVHRSSAHQAGVGTIFDRVLTELVAKMRDMKMDKTELGCLRAVVLFNPDAKGLTAVQEVEQLREKVYASLEEYTKSRYPEEPGRFAKLLLRLPALRSIGLKCLEHLFFFKLIGDQPIDTFLMEMLENPSPAT,soluble
2,MSTPTVITLNDGREIQATDKPSYDEDSGFYEFEQLDGKRTRLNKDQIRTVKELLEHHHHHH,not soluble
3,FPSTYLSHRQETIGQKATAIAQSLEGKDRQSIEQVLDLYSQTSDIKGTVKGEMTEDKLEVKDSLPLDTDRQTTSLFIEEREVKTQDGGTMILQFLASMDLQKEAEQ,not soluble
4,QTSPMTPDITGKPFVAADASNDYIKREVMIPMRDGVKLHTVIVLPKGAKNAPIVLTRTPYDASGRTERLASPHMKDLLSAGDDVFVEGGYIRVFQDVRGKYGSEGDYVMTRPLRGPLNPSEVDHATDAWDTIDWLVKNVSESNGKVGMIGSSYEGFTVVMALTNPHPALKVAVPESPMIDGWMGDDWFNYGAFRQVNFDYFTGQLSKRGKGAGIARQGHDDYSNFLQAGSAGDFAKAAGLEQLPWWHKLTEHAAYDAFWQEQALDKVMARTPLKVPTMWLQGLWDQEDMWGAIHSYAAMEPRDKRNTLNYLVMGPWRHSQVNYDGSALGALNFEGDTARQFRHDVLRPFFDQYLVDGAPKADTPPVFIYNTGENHWDRLKAWPRSCDKGCAATSKPLYLQAGGKLSFQPPVAGQAGFEEYVSDPAKPVPFVPRPVDFADRAMWTTWLVHDQRFVDGRPDVLTFVTEPLTEPLQIAGAPDVHLQASTSGSDSDWVVKLIDVYPEEMASNPKMGGYELPVSLAIFRGRYRESFSTPKPLTSNQPLAFQFGLPTANHTFQPGHRVMVQVQSSLFPLYDRNPQTYVPNIFFAKPGDYQKATQRVYVSPEQPSYISLPVR,soluble
5,MKIKEMVTSEMPRERLLSHGAKSLSNTELLAILINTGRKGFSSIDISNELLKSASNLNELKKSSINDLIKVKGIGLQKAITLKAAFELGERMGRRAENNRIKITQPSDVADYMIPTMKDLTQEHFVILLLNSKNVVIKETCVFKGTLNSSIVHPREIFSIAVRENANAIIAVHNHPSGDVLTIV,not soluble
6,MSKTLKIAIDAGHGPQTPGKRCPDDSMREFHFNSVVARYVRDGLAQYEGVQTMFTHADDGSRDVPLQERTDRANAWGADVFVSIHANASGNGWSDARGIETYVYTTRPAQAVKLAEAVQRNLIKETGLKDRGVKAENFHVLRETKMTAILCECGFMTNREEAELLKSDAYRRKCAKAIVAGIAEVYDLTLKQQAHASEPTYSGKFKDVPDGHYAKGATERLAEKGIMNGIGNGLFGFGKPITREDAAVIVDRAITYLEQKISQK,not soluble
7,MLSMCNKYPDFDDEERVRRVDDDFRDVITVFDAPFEGKSPSPAVIVFDELVDSDGSSKYLNFKMEQSYEKVDEIPEKIDAERIRYAIHLGSHSQKNVLQIFQSAYSDGYTEEDKNGKVPVGGKVKCAETETGFRTKINCENVVTAVNEYMDSNREKFGELRIETLNKAERNLDGYIYFSFLKQKPCRNLFIRIPPLE,not soluble
8,FVDPLCPECWSLEPVIKKLKIRYGRFFTLRIIASASLTALNKKRKKHLLAEAWEKIASRSGMSCDGNVWFEQDQPLSSPYMAALAFKAAELQGRKAGMQFLRNMQESLFVSKKNITDENVLLEIAENTSLDLEEFKKDLHSQSAVKALQCDMKIAAEMDVSVNPTLTFFNTQHEDEGLKVPGSYSYDVYEEILFEMLGDE,not soluble
9,MGSDKIHHHHHHMKIDMRNISKSFGTNKVLEKIDLELQSGQIHALMGENGAGKSTLMNILTGLFPASTGTIYIDGEERTFSNPQEAEEFGISFIHQEMNTWPEMTVLENLFLGREIKTTFGLLNQKLMRQKALETFKRLGVTIPLDIPIGNLSVGQQQMIEIAKSLLNQLSILVMDEPTAALTDRETENLFRVIRGLKQEGVGVVYISHRMEEIFKITDFVTVMRDGVIVDTKETSLTNSDELVKKMVGRKLEDYYPEKHSEIGPVAFEVSNLCGDNFEDVSFYVRKGEILGFSGLMGAGRTEVMRTIFGIDKKKSGKVKIDDQEITITTPSQAIKQGIGFLTENRKDEGLILDFNIKDNMTLPSTKDFSKHGFFDEKTSTTFVQQLINRLYIKSGRPDLEVGNLSGGNQQKVVLAKWIGIAPKVLILDEPTRGVDVGAKREIYQLMNELADRGVPIVMVSSDLPEILGVSDRIMVMHEGRISGELSRKEADQEKVMQLATGGK,not soluble
